Assays:
Assay in all cases: cell-based or functional assay
[1] = target: HIV Env, isolate CH064.env (HIV)
[2] = target: HIV Env, isolate 20286961_C1_H8 (HIV)
[3] = target: HIV Env, isolate 20965238 (HIV)
[4] = target: HIV Env, isolate CAP323.2.00_B6.45 (HIV)
[5] = target: HIV Env, isolate Ce0665_F2 (HIV)
[6] = target: HIV Env, isolate 6980.v0.c31 (HIV)
[7] = target: HIV Env, isolate ZM135M.PL10a (HIV)
[8] = target: HIV Env, isolate 21283649 (HIV)
[9] = target: HIV Env, isolate SO607_B6.9 (HIV)
[10] = target: HIV Env, isolate 20883229_C9_H6 (HIV)
[11] = target: HIV Env, isolate ZM215F.PB8 (HIV)
[12] = target: HIV Env, isolate 20915593 (HIV)
[13] = target: HIV Env, isolate 20198102_E9_G1 (HIV)
[14] = target: HIV Env, isolate 20927783 (HIV)
[15] = target: HIV Env, isolate 20258279_V2 (HIV)
[16] = target: HIV Env, isolate CAP45.2.00.G3 (HIV)
[17] = target: HIV Env, isolate 3426.v5.c17 (HIV)
[18] = target: HIV Env, isolate Me178_G6.16 (HIV)
[19] = target: HIV Env, isolate CT184_D3.15 (HIV)
[20] = target: HIV Env, isolate 7060101641A7(Rev-) (HIV)
[21] = target: HIV Env, isolate 3312_D6.2 (HIV)
[22] = target: HIV Env, isolate Ce2052_G10 (HIV)
[23] = target: HIV Env, isolate CAP266.2.00_E9_h6 (HIV)
[24] = target: HIV Env, isolate ZM233M.PB6 (HIV)
[25] = target: HIV Env, isolate CT810_G4-7 (HIV)
[26] = target: HIV Env, isolate 21561324_D3_B5 (HIV)
[27] = target: HIV Env, isolate Ko459_T68_4 (HIV)
[28] = target: HIV Env, isolate CAP136.1.16_E6_1 (HIV)
[29] = target: HIV Env, isolate 6040.v4.c15 (HIV)
[30] = target: HIV Env, isolate 704010042 (HIV)
[31] = target: HIV Env, isolate CA146_H3_3 (HIV)
[32] = target: HIV Env, isolate 3603_C11.13 (HIV)
[33] = target: HIV Env, isolate CAP291.2.00_H2.15 (HIV)
[34] = target: HIV Env, isolate 235080_3G7env2(Rev-) (HIV)
[35] = target: HIV Env, isolate CH0505.w4.3 (HIV)
[36] = target: HIV Env, isolate Ko870_C2_10 (HIV)

B1: ePGDM9 (antibody, V domains shown)
VH: QAQLVQSGPEVRKPGTSVKVSCKNPGNTLTTYDLHWVRQVPGQGLQWMGWISHEGDKKVIVERFKAKVTIDWDRSTNTAYLQLSGLTSEDTAVYYCAKGSKHRLRDYALYDEDGALNWAVDVDYLANLEFWGQGTAVTVSS
VL: DIVLTQSPLSLSVTPGESASISCKSSQSLIHGDRNNYLAWYVQKPGRSPQLLIDLASERASGVPDRFSGSGSRKDFTLKISRVETEDVGTYYCMQGRESPWTFGQGTKVDIK
[1]
  IC50: 0.333 mg/L
  IC80: 1.62 mg/L
[2]
  IC50: 0.023 mg/L
  IC80: > 50 mg/L
[3]
  IC50: > 50 mg/L
  IC80: > 50 mg/L
[4]
  IC50: 0.004 mg/L
  IC80: 0.016 mg/L
[5]
  IC50: 22.4 mg/L
  IC80: > 50 mg/L
[6]
  IC50: < 0.0006 mg/L
  IC80: 0.006 mg/L
[7]
  IC50: > 50 mg/L
  IC80: > 50 mg/L
[8]
  IC50: 1.55 mg/L
  IC80: > 50 mg/L
[9]
  IC50: 29.5 mg/L
  IC80: > 50 mg/L
[10]
  IC50: > 50 mg/L
  IC80: > 50 mg/L
[11]
  IC50: < 0.0006 mg/L
  IC80: 0.007 mg/L
[12]
  IC50: 0.004 mg/L
  IC80: 0.015 mg/L
[13]
  IC50: 0.007 mg/L
  IC80: 0.021 mg/L
[14]
  IC50: 0.005 mg/L
  IC80: 0.017 mg/L
[15]
  IC50: > 50 mg/L
  IC80: > 50 mg/L
[16]
  IC50: < 0.0006 mg/L
  IC80: < 0.0006 mg/L
[17]
  IC50: < 0.0006 mg/L
  IC80: 0.002 mg/L
[18]
  IC50: 0.006 mg/L
  IC80: 0.031 mg/L
[19]
  IC50: < 0.0006 mg/L
  IC80: 0.002 mg/L
[20]
  IC50: 0.002 mg/L
  IC80: 0.013 mg/L
[21]
  IC50: 0.004 mg/L
  IC80: 0.011 mg/L
[22]
  IC50: 0.001 mg/L
  IC80: 0.005 mg/L
[23]
  IC50: 0.008 mg/L
  IC80: 0.037 mg/L
[24]
  IC50: < 0.0006 mg/L
  IC80: 0.001 mg/L
[25]
  IC50: 0.087 mg/L
  IC80: 5.53 mg/L
[26]
  IC50: 0.004 mg/L
  IC80: 0.038 mg/L
[27]
  IC50: 0.003 mg/L
  IC80: 0.126 mg/L
[28]
  IC50: > 50 mg/L
  IC80: > 50 mg/L
[29]
  IC50: < 0.0006 mg/L
  IC80: 0.003 mg/L
[30]
  IC50: < 0.0006 mg/L
  IC80: < 0.0006 mg/L
[31]
  IC50: > 50 mg/L
  IC80: > 50 mg/L
[32]
  IC50: 0.654 mg/L
  IC80: 2.17 mg/L
[33]
  IC50: 0.342 mg/L
  IC80: 1.1 mg/L
[34]
  IC50: 0.002 mg/L
  IC80: 0.005 mg/L
[35]
  IC50: 0.001 mg/L
  IC80: 0.011 mg/L
[36]
  IC50: 0.001 mg/L
  IC80: 0.021 mg/L
